Test results from paper PMC10237651, “Arabidopsis FIN219/JAR1 interacts with phytochrome A under far-red light and jasmonates in regulating hypocotyl elongation via a functional demand manner” (PLOS Genetics, 2023).

Molecular target: T1, CBP-PHYA (recombinant full-length PHYA) (Arabidopsis, UniProt P14712 1-1122)
T1 construct: phytochrome A (PHYA), Arabidopsis, At1g09570, full length; coding region cloned into pCAL-n in frame with an upstream CBP tag; Made in E. coli; no chromophore is mentioned; also called CBP-PHYA-F; source: E. coli (BL21), purified (Calmodulin Resin)
T1 sequence (looked up): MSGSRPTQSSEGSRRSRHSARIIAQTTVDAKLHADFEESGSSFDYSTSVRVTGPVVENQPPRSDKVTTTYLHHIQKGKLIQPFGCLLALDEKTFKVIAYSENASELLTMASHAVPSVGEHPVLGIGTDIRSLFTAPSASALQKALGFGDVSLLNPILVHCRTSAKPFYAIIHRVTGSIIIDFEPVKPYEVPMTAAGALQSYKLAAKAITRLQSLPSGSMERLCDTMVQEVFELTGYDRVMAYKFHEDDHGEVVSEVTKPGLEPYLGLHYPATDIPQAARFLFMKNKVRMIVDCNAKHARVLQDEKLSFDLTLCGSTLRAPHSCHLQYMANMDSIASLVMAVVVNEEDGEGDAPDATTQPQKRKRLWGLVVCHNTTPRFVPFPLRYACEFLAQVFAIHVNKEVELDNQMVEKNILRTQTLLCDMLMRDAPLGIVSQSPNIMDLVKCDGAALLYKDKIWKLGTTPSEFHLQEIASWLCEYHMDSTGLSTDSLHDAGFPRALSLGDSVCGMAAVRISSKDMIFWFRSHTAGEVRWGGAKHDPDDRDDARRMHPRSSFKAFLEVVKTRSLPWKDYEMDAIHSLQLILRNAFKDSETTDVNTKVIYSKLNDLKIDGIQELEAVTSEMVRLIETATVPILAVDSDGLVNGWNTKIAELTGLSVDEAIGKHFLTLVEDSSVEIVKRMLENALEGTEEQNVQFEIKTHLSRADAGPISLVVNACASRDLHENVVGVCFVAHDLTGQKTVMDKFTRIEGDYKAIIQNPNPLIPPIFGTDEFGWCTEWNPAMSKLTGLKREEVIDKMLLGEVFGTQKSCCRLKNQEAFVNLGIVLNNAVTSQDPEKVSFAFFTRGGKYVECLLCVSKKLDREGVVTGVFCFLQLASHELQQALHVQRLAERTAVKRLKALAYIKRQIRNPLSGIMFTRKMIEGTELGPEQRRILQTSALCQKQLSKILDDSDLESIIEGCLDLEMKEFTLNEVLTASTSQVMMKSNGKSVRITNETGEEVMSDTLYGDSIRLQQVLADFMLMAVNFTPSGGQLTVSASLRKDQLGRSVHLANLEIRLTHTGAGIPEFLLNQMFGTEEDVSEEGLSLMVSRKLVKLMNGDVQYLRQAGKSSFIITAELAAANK
Assay: pull-down; 1 μg GST-tagged FIN219 protein on 10 μl GST beads overnight at 4°C in 1 ml 1X PBS, then 1 μg CBP-PHYA for 2 h at 4°C; eight washes with 1X PBS; blots with anti-GST and anti-phyA
Details: both partners purified

B1: GST-FIN219-FL (enzyme, Arabidopsis, UniProt Q9SKE2 1-575, looked up)
chain: MLEKVETFDMNRVIDEFDEMTRNAHQVQKQTLKEILLKNQSAIYLQNCGLNGNATDPEEAFKSMVPLVTDVELEPYIKRMVDGDTSPILTGHPVPAISLSSGTSQGRPKFIPFTDELMENTLQLFRTAFAFRNRDFPIDDNGKALQFIFSSKQYISTGGVPVGTATTNVYRNPNFKAGMKSITSPSCSPDEVIFSPDVHQALYCHLLSGILFRDQVQYVFAVFAHGLVHAFRTFEQVWEEIVTDIKDGVLSNRITVPSVRTAMSKLLTPNPELAETIRTKCMSLSNWYGLIPALFPNAKYVYGIMTGSMEPYVPKLRHYAGDLPLVSHDYGSSEGWIAANVTPRLSPEEATFAVIPNLGYFEFLPVSETGEGEEKPVGLTQVKIGEEYEVVITNYAGLYRYRLGDVVKVIGFYNNTPQLKFICRRNLILSINIDKNTERDLQLSVESAAKRLSEEKIEVIDFSSYIDVSTDPGHYAIFWEISGETNEDVLQDCCNCLDRAFIDAGYVSSRKCKTIGALELRVVAKGTFRKIQEHFLGLGSSAGQFKMPRCVKPSNAKVLQILCENVVSSYFSTAF
notes: FIN219/JAR1, Arabidopsis, At2g46370, full length; also called full-length FIN219; source: E. coli, purified (Glutathione Sepharose 4B)
  binding result: binds
